In patent US20250163167A1 (SYNTHEKINE, published 2025):

T1: human IL-10 receptor (hIL-10R alpha and beta chains) on HEK-Blue IL-10 reporter cells (human, UniProt Q13651 22-578; Q08334 20-325)
T1 sequence 1: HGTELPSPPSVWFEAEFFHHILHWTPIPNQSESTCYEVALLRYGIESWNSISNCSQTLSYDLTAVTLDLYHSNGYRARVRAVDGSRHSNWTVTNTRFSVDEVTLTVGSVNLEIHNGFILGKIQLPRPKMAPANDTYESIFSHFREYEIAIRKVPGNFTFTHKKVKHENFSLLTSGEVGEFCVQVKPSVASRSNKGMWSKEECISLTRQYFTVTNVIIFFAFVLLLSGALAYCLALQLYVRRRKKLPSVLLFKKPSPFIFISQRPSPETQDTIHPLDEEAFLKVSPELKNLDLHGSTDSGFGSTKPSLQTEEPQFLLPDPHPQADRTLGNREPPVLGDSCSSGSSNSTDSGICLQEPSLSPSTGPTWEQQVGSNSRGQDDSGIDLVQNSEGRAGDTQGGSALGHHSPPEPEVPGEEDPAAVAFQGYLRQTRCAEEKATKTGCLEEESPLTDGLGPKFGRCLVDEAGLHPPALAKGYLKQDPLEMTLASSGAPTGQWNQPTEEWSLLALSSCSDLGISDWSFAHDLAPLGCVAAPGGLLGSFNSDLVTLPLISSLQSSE
T1 sequence 2: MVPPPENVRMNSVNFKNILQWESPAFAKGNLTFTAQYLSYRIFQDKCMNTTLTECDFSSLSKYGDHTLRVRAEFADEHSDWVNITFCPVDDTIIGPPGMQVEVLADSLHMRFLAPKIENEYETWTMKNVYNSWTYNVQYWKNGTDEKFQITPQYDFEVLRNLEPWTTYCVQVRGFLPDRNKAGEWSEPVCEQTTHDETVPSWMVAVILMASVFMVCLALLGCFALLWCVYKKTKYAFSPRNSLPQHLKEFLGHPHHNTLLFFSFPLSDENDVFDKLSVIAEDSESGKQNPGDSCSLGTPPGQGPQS

B1: IL10R binding molecule of SEQ ID NO: 275 (bispecific antibody)
chain: QVQLQESGGGSVQAGGSLRLSCAASGYTYSMYCMGWFRQAPGKEREGVAQINSDGSTSYADSVKGRFTISKDNAKNTLYLQMNSLKPEDTAMYYCAADSRVYGGSWYERLCGPYTYEYNYWGQGTQVTVSSGGGSQVQLQESGGGSVQAGGSLRLSCAASGYSYSSYCMGWFRQAPGKEREGVATIDSDGMTRYADSVKGRFTISKDNAKNTLYLQMNSLKPEDTAMYYCAAPLYDCDSGAVGRNPPYWGQGTQVTVSSASHHHHHH
B2: IL10R binding molecule of SEQ ID NO: 274 (bispecific antibody)
chain: QVQLQESGGGSVQAGGSLRLSCAASGYTYSMYCMGWFRQAPGKEREGVAQINSDGSTSYADSVKGRFTISKDNAKNTLYLQMNSLKPEDTAMYYCAADSRVYGGSWYERLCGPYTYEYNYWGQGTQVTVSSGGGSQVQLQESGGGSVEAGGSLRLSCAASGYTHSSYCMGWFRQAPGKEREGVAAIDVDGSTTYADSVKGRFTISKDNAKNTLYLQMNSLKPEDTGMYYCAAEFADCSSNYFLPPGAVRYWGQGTQVTVSSASHHHHHH
B3: IL10R binding molecule of SEQ ID NO: 256 (bispecific antibody)
chain: QVQLQESGGGSVQAGGSLRLSCAASRYLYSIDYMAWFRQSPGKEREPVAVIYTASGATFYPDSVKGRFTISQDNAKMTVYLQMNSLKSEDTAMYYCAAVRKTDSYLFDAQSFTYWGQGTQVTVSSGGGSQVQLQESGGGSVQAGGSLRLSCAASGYTYSSGCMGWFRQAPGKEREAVAAINSDGSTSYADSVKGRFTISKDNAKNTLYLQMNSLKPEDTAMYYCAAEPYCSGGYPRWSVAEFGYWGQGTQVTVSSASHHHHHH
B4: IL10R binding molecule of SEQ ID NO: 280 (bispecific antibody)
chain: QVQLQESGGGSVQAGGSLRLSCAVSGYAYSTYCMGWFRQAPGKEREGVAAIDSGGSTSYADSVKGRFTISKDNAKNTLYLRMNSLKPEDTAMYYCAAVPPPPDGGSCLFLGPEIKVSKADFRYWGQGTQVTVSSGGGSQVQLQESGGGSVQAGGSLRLSCTVSRYTASVNYMGWFRQAPGKEREGVATIFTGAGTTYYANSVKGRFTISRDNAKNTAYLQMNSLKPEDTAIYYCAVDFRGGLLYRPAYEYTYRGQGTQVTVSSASHHHHHH
B5: IL10R binding molecule of SEQ ID NO: 270 (bispecific antibody)
chain: QVQLQESGGGSVQAGGSLRLSCAASGYTYSMYCMGWFRQAPGKEREGVAQINSDGSTSYADSVKGRFTISKDNAKNTLYLQMNSLKPEDTAMYYCAADSRVYGGSWYERLCGPYTYEYNYWGQGTQVTVSSGGGSQVQLQESGGGSVQAGGSLRLSCAASGYTYSSGCMGWFRQAPGKEREAVAAINSDGSTSYADSVKGRFTISKDNAKNTLYLQMNSLKPEDTAMYYCAAEPYCSGGYPRWSVAEFGYWGQGTQVTVSSASHHHHHH
B6: IL10R binding molecule of SEQ ID NO: 281 (bispecific antibody)
chain: QVQLQESGGGSVQAGGSLRLSCAVSGYAYSTYCMGWFRQAPGKEREGVAAIDSGGSTSYADSVKGRFTISKDNAKNTLYLRMNSLKPEDTAMYYCAAVPPPPDGGSCLFLGPEIKVSKADFRYWGQGTQVTVSSGGGSQVQLQESGGGSVEAGGSLRLSCAASGYTHSSYCMGWFRQAPGKEREGVAAIDVDGSTTYADSVKGRFTISKDNAKNTLYLQMNSLKPEDTGMYYCAAEFADCSSNYFLPPGAVRYWGQGTQVTVSSASHHHHHH
B7: IL10R binding molecule of SEQ ID NO: 273 (bispecific antibody)
chain: QVQLQESGGGSVQAGGSLRLSCAASGYTYSMYCMGWFRQAPGKEREGVAQINSDGSTSYADSVKGRFTISKDNAKNTLYLQMNSLKPEDTAMYYCAADSRVYGGSWYERLCGPYTYEYNYWGQGTQVTVSSGGGSQVQLQESGGGSVQAGGSLRLSCTVSRYTASVNYMGWFRQAPGKEREGVATIFTGAGTTYYANSVKGRFTISRDNAKNTAYLQMNSLKPEDTAIYYCAVDFRGGLLYRPAYEYTYRGQGTQVTVSSASHHHHHH
B8: IL10R binding molecule of SEQ ID NO: 271 (bispecific antibody)
chain: QVQLQESGGGSVQAGGSLRLSCAASGYTYSMYCMGWFRQAPGKEREGVAQINSDGSTSYADSVKGRFTISKDNAKNTLYLQMNSLKPEDTAMYYCAADSRVYGGSWYERLCGPYTYEYNYWGQGTQVTVSSGGGSQVQLQESGGGSVQAGGSLRLSCAASGYTYSSYCMGWFRQAPGKEREGVAHIDSDGSTSYADSVKGRFTISKDNAKNTLYLQMNSLKPEDTAMYYCAADPIPGPGYCDGGPNKYWGQGTQVTVSSASHHHHHH
B9: IL10R binding molecule of SEQ ID NO: 257 (bispecific antibody)
chain: QVQLQESGGGSVQAGGSLRLSCAASRYLYSIDYMAWFRQSPGKEREPVAVIYTASGATFYPDSVKGRFTISQDNAKMTVYLQMNSLKSEDTAMYYCAAVRKTDSYLFDAQSFTYWGQGTQVTVSSGGGSQVQLQESGGGSVQAGGSLRLSCAASGYTYSSYCMGWFRQAPGKEREGVAHIDSDGSTSYADSVKGRFTISKDNAKNTLYLQMNSLKPEDTAMYYCAADPIPGPGYCDGGPNKYWGQGTQVTVSSASHHHHHH
B10: IL10R binding molecule of SEQ ID NO: 276 (bispecific antibody)
chain: QVQLQESGGGSVQAGGSLRLSCAASGYTYSMYCMGWFRQAPGKEREGVAQINSDGSTSYADSVKGRFTISKDNAKNTLYLQMNSLKPEDTAMYYCAADSRVYGGSWYERLCGPYTYEYNYWGQGTQVTVSSGGGSQVQLQESGGGSVQTGGSLRLSCAASGYTYLRGCMGWFRQAPGKEREGVAVMDVVGDRRSYIDSVKGRFTISRDNAANSVYLQMDNLKPEDTAMYYCTAGPNCVGWRSGLDYWGQGTQVTVSSASHHHHHH
B11: IL10R binding molecule of SEQ ID NO: 272 (bispecific antibody)
chain: QVQLQESGGGSVQAGGSLRLSCAASGYTYSMYCMGWFRQAPGKEREGVAQINSDGSTSYADSVKGRFTISKDNAKNTLYLQMNSLKPEDTAMYYCAADSRVYGGSWYERLCGPYTYEYNYWGQGTQVTVSSGGGSQVQLQESGGGSVQAGGSLRLSCAASRYTYNSYCMGWFRQAPGKEREGVATIDSDGMTRYADSVKGRFTISKDNAKNTLYLQMNSLKPEDTAMYYCAADADCTIAAMTTNPLGQGTQVTVSSASHHHHHH
B12: IL10R binding molecule of SEQ ID NO: 282 (bispecific antibody)
chain: QVQLQESGGGSVQAGGSLRLSCAVSGYAYSTYCMGWFRQAPGKEREGVAAIDSGGSTSYADSVKGRFTISKDNAKNTLYLRMNSLKPEDTAMYYCAAVPPPPDGGSCLFLGPEIKVSKADFRYWGQGTQVTVSSGGGSQVQLQESGGGSVQAGGSLRLSCAASGYSYSSYCMGWFRQAPGKEREGVATIDSDGMTRYADSVKGRFTISKDNAKNTLYLQMNSLKPEDTAMYYCAAPLYDCDSGAVGRNPPYWGQGTQVTVSSASHHHHHH
B13: IL10R binding molecule of SEQ ID NO: 269 (bispecific antibody)
chain: QVQLQESGGGSVQAGGSLRLSCAASRFTYSSYCMGWFRQAPGKEREGVASIDSDGSTSYTDSVKGRFTISKDNAKNTLYLQMNSLKPEDTAMYYCALDLMSTVVPGFCGFLLSAGMDYWGKGTQVTVSSGGGSQVQLQESGGGSVQTGGSLRLSCAASGYTYLRGCMGWFRQAPGKEREGVAVMDVVGDRRSYIDSVKGRFTISRDNAANSVYLQMDNLKPEDTAMYYCTAGPNCVGWRSGLDYWGQGTQVTVSSASHHHHHH
B14: IL10R binding molecule of SEQ ID NO: 279 (bispecific antibody)
chain: QVQLQESGGGSVQAGGSLRLSCAVSGYAYSTYCMGWFRQAPGKEREGVAAIDSGGSTSYADSVKGRFTISKDNAKNTLYLRMNSLKPEDTAMYYCAAVPPPPDGGSCLFLGPEIKVSKADFRYWGQGTQVTVSSGGGSQVQLQESGGGSVQAGGSLRLSCAASRYTYNSYCMGWFRQAPGKEREGVATIDSDGMTRYADSVKGRFTISKDNAKNTLYLQMNSLKPEDTAMYYCAADADCTIAAMTTNPLGQGTQVTVSSASHHHHHH
B15: IL10R binding molecule of SEQ ID NO: 277 (bispecific antibody)
chain: QVQLQESGGGSVQAGGSLRLSCAVSGYAYSTYCMGWFRQAPGKEREGVAAIDSGGSTSYADSVKGRFTISKDNAKNTLYLRMNSLKPEDTAMYYCAAVPPPPDGGSCLFLGPEIKVSKADFRYWGQGTQVTVSSGGGSQVQLQESGGGSVQAGGSLRLSCAASGYTYSSGCMGWFRQAPGKEREAVAAINSDGSTSYADSVKGRFTISKDNAKNTLYLQMNSLKPEDTAMYYCAAEPYCSGGYPRWSVAEFGYWGQGTQVTVSSASHHHHHH
B16: IL10R binding molecule of SEQ ID NO: 278 (bispecific antibody)
chain: QVQLQESGGGSVQAGGSLRLSCAVSGYAYSTYCMGWFRQAPGKEREGVAAIDSGGSTSYADSVKGRFTISKDNAKNTLYLRMNSLKPEDTAMYYCAAVPPPPDGGSCLFLGPEIKVSKADFRYWGQGTQVTVSSGGGSQVQLQESGGGSVQAGGSLRLSCAASGYTYSSYCMGWFRQAPGKEREGVAHIDSDGSTSYADSVKGRFTISKDNAKNTLYLQMNSLKPEDTAMYYCAADPIPGPGYCDGGPNKYWGQGTQVTVSSASHHHHHH

What follows are binders tested against T1, human IL-10 receptor (hIL-10R alpha and …) (assay: cell-based or functional assay).

| Abs 630 (25 nM) | Abs 630 (100 nM) | Binder |
| --- | --- | --- |
| 0.51 Abs 630 | 0.36 Abs 630 | B1 |
| 0.46 Abs 630 | 0.37 Abs 630 | B2 |
| 0.49 Abs 630 | 0.39 Abs 630 | B3 |
| 0.49 Abs 630 | 0.37 Abs 630 | B4 |
| 1.41 Abs 630 | 0.73 Abs 630 | B5 |
| 0.66 Abs 630 | 0.69 Abs 630 | B6 |
| 0.52 Abs 630 | 0.41 Abs 630 | B7 |
| 1.93 Abs 630 | 1.65 Abs 630 | B8 |
| 0.45 Abs 630 | 0.36 Abs 630 | B9 |
| 0.46 Abs 630 | 0.36 Abs 630 | B10 |
| 0.47 Abs 630 | 0.38 Abs 630 | B11 |
| 0.44 Abs 630 | 0.36 Abs 630 | B12 |
| 0.46 Abs 630 | 0.37 Abs 630 | B13 |
| 0.49 Abs 630 | 0.39 Abs 630 | B14 |
| 1.19 Abs 630 | 1 Abs 630 | B15 |
| 1.61 Abs 630 | 1.18 Abs 630 | B16 |
